{"source": "paper PMC3498381", "about": "“Isolated Toll-like Receptor Transmembrane Domains Are Capable of Oligomerization” (PLoS ONE, 2012)", "molecules": {"B1": {"name": "TLR2 transmembrane domain (ToxR chimera) (domain or fragment)", "chain": "GNRASALVSGMCCALFLLILLTGVLCGSLIN", "notes": "flank encoded by the reading frame of the plasmid construct; Toll-like receptor 2 transmembrane domain, human, as identified by hydrophobic analysis; One molecule for the ToxR and the ToxR* form of this TMD; also called TLR2 TMD; wild type TLR2 TMD; source: E. coli FHK12, transformed with pTox7 or pTox6 plasmid, in the cells' membrane"}, "B2": {"name": "TLR1 transmembrane domain (ToxR chimera) (domain or fragment)", "chain": "GNRASITLLIVTIVATMLVLAVTVTSLCSYLGSLIN", "notes": "flank encoded by the reading frame of the plasmid construct; Toll-like receptor 1 transmembrane domain, human, as identified by hydrophobic analysis; One molecule for the ToxR and the ToxR* form of this TMD; also called TLR1 TMD; source: E. coli FHK12, transformed with pTox7 or pTox6 plasmid, in the cells' membrane"}, "B3": {"name": "TLR6 transmembrane domain (ToxR chimera) (domain or fragment)", "chain": "GNRASITLLIVTIGATMLVLAVTVTSLCIYLGSLIN", "notes": "flank encoded by the reading frame of the plasmid construct; Toll-like receptor 6 transmembrane domain, human, as identified by hydrophobic analysis; One molecule for the ToxR and the ToxR* form of this TMD; also called TLR6 TMD; source: E. coli FHK12, transformed with pTox7 or pTox6 plasmid, in the cells' membrane"}}, "key": {"[1]": {"system": "heterotypic interactions of the TLR2 TMD", "experiment": "Heterotypic ToxR assay of TLR2 point mutants", "assay_type": "cell-based, E. coli", "conditions": "compared with native TLR2 TMD (Fig. 7B)", "excerpt": "To investigate if these residues were involved in the homotypic or heterotypic interactions we performed site-directed mutagenesis at key positions in the TLR2 TMD – Gly593Val, Ala597Val, and Cys609Ile – and tested these mutants in both homotypic and heterotypic ToxR assays.\nFigure 7 Toll-like Receptor 2 Interaction Interface Studied by Mutagenesis. TLR2 residues were mutated to study effects on homotypic and heterotypic interactions using the ToxR assay. These mutations were at positions identified in the sequence as likely interaction locations. (A) Homotypic interactions of point mutations show no difference in interaction potential from wild-type TLR2 TMD. (B) Heterotypic interactions of point mutations show the potential importance of both the Ala597 and Cys609 positions for heterotypic interactions. […]\nFor heterotypic interactions one plasmid containing a functional ToxR domain (200 ng) and a second plasmid containing a non-functional ToxR* domain (200 ng) were co-transformed into chemically competent FHK12 E. coli (400 µL) by incubating on ice for 30 min, heat shock at 42°C for 90 s, incubation on ice for 2 min, and addition of SOC media (1600 µL) followed by incubation with shaking for 1 h at 37°C. […] Analysis of activity was monitored as described in homotypic ToxR assays. […]"}, "[2]": {"system": "homotypic TMD-TMD interaction (ToxR / ctx promoter / β-galactosidase reporter in FHK12 E. coli)", "experiment": "Homotypic ToxR reporter assay (β-galactosidase)", "assay_type": "cell-based", "conditions": "homotypic ToxR assay, compared with wild type TLR2 TMD (Fig. 7A)", "method": ". Various plasmid constructs for this assay make it possible to monitor both homotypic and heterotypic interactions that are driven by TMD-TMD association (Fig. S1).\nWe first investigated homotypic interactions because the majority of the TLR family members function as homodimers. […] This ΔTM construct consists of the same maltose binding protein and ToxR domain, but lacks a TMD for proper membrane insertion (Fig. S2). Statistical analysis using the Tukey-Kramer test was performed to analyze any significant differences between all possible pairs of average interaction potentials (Table S2). […] Among the TLRs, no discernable differences in grouping based on statistical analysis at p = 0.05 were indicated as all receptors belonged to multiple groups, except for TLR1, which with the lowest interaction potential among the family of receptors only existed in one group (Table S1).\nFigure 2 Toll-like Receptor Transmembrane Domain Homotypic Interactions. (A) The ToxR assay was used to study homotypic interactions of the TLR TMDs. A chimeric protein expressing the TMD of interest was monitored through β-galactosidase activity. In all cases, we saw that the TLRs have interaction potential solely from TMD-TMD interactions. Each TLR TMD interaction measurement analysis was performed on 3 technical replicates with >6 measurements for each replicate. Error bars depict the standard error of the mean (n – Table S1). Western blots staining for MBP were performed to monitor expression levels of the constructs – (B) chimeric maltose binding protein expression, (C) endogenous maltose binding protein expression. All samples were normalized to the GpA signal and expression levels.\nBriefly, the ToxR plasmids containing the TMD of interest (200 ng) were transformed into chemically competent FHK12 E. coli (200 µL) by incubating on ice for 30 min, heat shock at 42°C for 90 s, incubation on ice for 2 min, and addition of SOC media (800 µL) followed by incubation with shaking for 1 h at 37°C. This transformation mixture (50 µL) was then spread on LB agar plates containing cholaramphenicol (30 µg/mL) and ampicillin (100 µg/mL) and grown overnight at 37°C. Single colonies were selected from the plates in triplicate and added to 5 mL of LB media containing cholaramphenicol (30 µg/mL), ampicillin (100 µg/mL), and arabinose (0.0025%). These cultures were incubated overnight (16–20 h) with shaking at 37°C. The β-galactosidase activity was monitored using a Beckman Coulter DTX 880 plate-reader. First 5 µL of each culture was plated >6 times in a clear 96-well flat bottom culture plate (Sarstedt) containing 100 µL of Z-buffer/chloroform (1% β-mercaptoethanol, 10% chloroform, 89% Z buffer: […], 10 mM potassium chloride, 1 mM magnesium sulfate, pH 7.0). The cell densities of each well were recorded by measuring the OD595. Bacteria were lysed by the addition of 50 µL Z-buffer/SDS (1.6% sodium dodecyl sulfate w/v in Z-buffer) and shaking at 28°C for 10 min. Enzymatic activity was measured by adding 50 µL of Z-buffer/ortho-Nitrophenyl-β-[…] (ONPG) (0.4% ONPG w/v in Z-buffer) and monitoring the reaction at 405 nm for a period of 20 min at 30 s intervals. Miller units were calculated using the equation: [drawing 1]\nWestern blotting was performed with antiserum recognizing the maltose-binding protein moiety of the constructs (Abcam). Data were normalized to GpA Miller Units and protein expression levels using ImageJ (NIH) as reported previously."}, "[3]": {"target": "T1, TLR2 transmembrane domain A597V (ToxR chimera), O60603", "T1 chain": "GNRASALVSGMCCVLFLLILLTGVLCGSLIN", "experiment": "homotypic ToxR assay", "conditions": "chain shown with the change; higher signal = more homotypic TMD association; parent: est. 1.0; read off a plot"}, "[4]": {"target": "T2, TLR6 transmembrane domain (ToxR chimera)", "T2 chain": "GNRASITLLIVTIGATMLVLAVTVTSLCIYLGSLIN", "experiment": "heterotypic ToxR assay", "conditions": "chain shown with the change; competitor TLR6* (nonfunctional ToxR* chimera); PolyLeu* = 1.0; lower signal = more ToxR inhibition = more interaction; parent: est. 0.24; read off a plot"}, "[5]": {"target": "T3, TLR5 transmembrane domain (ToxR chimera)", "T3 chain": "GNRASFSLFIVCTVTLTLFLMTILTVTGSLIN", "experiment": "heterotypic ToxR assay", "conditions": "chain shown with the change; competitor TLR5* (nonfunctional ToxR* chimera); PolyLeu* = 1.0; lower signal = more ToxR inhibition = more interaction; parent: est. 0.53; read off a plot"}, "[6]": {"target": "T4, TLR4 transmembrane domain (ToxR chimera)", "T4 chain": "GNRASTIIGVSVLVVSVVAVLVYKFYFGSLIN", "experiment": "heterotypic ToxR assay", "conditions": "chain shown with the change; competitor TLR4* (nonfunctional ToxR* chimera); PolyLeu* = 1.0; lower signal = more ToxR inhibition = more interaction; parent: est. 0.90; read off a plot"}, "[7]": {"target": "T5, TLR10 transmembrane domain (ToxR chimera)", "T5 chain": "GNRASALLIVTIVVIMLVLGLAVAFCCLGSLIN", "experiment": "heterotypic ToxR assay", "conditions": "chain shown with the change; competitor TLR10* (nonfunctional ToxR* chimera); PolyLeu* = 1.0; lower signal = more ToxR inhibition = more interaction; parent: est. 0.41; read off a plot"}, "[8]": {"target": "T6, TLR2 transmembrane domain (ToxR chimera)", "T6 chain": "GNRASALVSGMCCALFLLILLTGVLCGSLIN", "experiment": "heterotypic ToxR assay", "conditions": "chain shown with the change; competitor TLR2* (nonfunctional ToxR* chimera); PolyLeu* = 1.0; lower signal = more ToxR inhibition = more interaction; parent: est. 0.42; read off a plot"}, "[9]": {"target": "T7, TLR1 transmembrane domain (ToxR chimera)", "T7 chain": "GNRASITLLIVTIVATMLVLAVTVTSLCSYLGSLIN", "experiment": "heterotypic ToxR assay", "conditions": "chain shown with the change; competitor TLR1* (nonfunctional ToxR* chimera); PolyLeu* = 1.0; lower signal = more ToxR inhibition = more interaction; parent: est. 0.47; read off a plot"}, "[10]": {"target": "B2", "experiment": "dominant-negative ToxR reporter assay; heterotypic; one TMD with functional ToxR (dominant phenotype) and one with non-functional ToxR* (negative phenotype) co-expressed in E. coli FHK12; interaction read as reduction of β-galactosidase signal; normalised to poly-Leu* and to expression levels", "conditions": "partners not purified"}, "[11]": {"target": "B3", "experiment": "dominant-negative ToxR reporter assay; heterotypic; one TMD with functional ToxR (dominant phenotype) and one with non-functional ToxR* (negative phenotype) co-expressed in E. coli FHK12; interaction read as reduction of β-galactosidase signal; normalised to poly-Leu* and to expression levels", "conditions": "partners not purified"}, "[12]": {"target": "B1", "experiment": "dominant-negative ToxR reporter assay; heterotypic; one TMD with functional ToxR (dominant phenotype) and one with non-functional ToxR* (negative phenotype) co-expressed in E. coli FHK12; interaction read as reduction of β-galactosidase signal; normalised to poly-Leu* and to expression levels", "conditions": "partners not purified"}}, "note": "No end group written: not given here.", "data": [{"molecule": "TLR2 C609I: TLR2 TMD ToxR construct with point mutation Cys609Ile (GNRASALVSGMCCALFLLILLTGVLIGSLIN; cysteine pairing not given here; also: fused to ToxR activation domain and maltose binding protein, ends not given here)", "values": [{"measurement": "Effect of TLR2 point mutation on heterotypic interactions", "setting": "[1]", "result": "capable of reducing the ToxR inhibition demonstrated by the native TLR2 TMD"}, {"measurement": "Effect of TLR2 point mutation on homotypic interaction", "setting": "[2]", "result": "no mutation demonstrated significant difference from the wild type TLR2 TMD"}]}, {"molecule": "TLR2 A597V: TLR2 TMD ToxR construct with point mutation Ala597Val (GNRASALVSGMCCVLFLLILLTGVLCGSLIN; cysteine pairing not given here; also: fused to ToxR activation domain and maltose binding protein, ends not given here)", "values": [{"measurement": "Effect of TLR2 point mutation on heterotypic interactions", "setting": "[1]", "result": "capable of reducing the ToxR inhibition demonstrated by the native TLR2 TMD"}, {"measurement": "Effect of TLR2 point mutation on homotypic interaction", "setting": "[2]", "result": "no mutation demonstrated significant difference from the wild type TLR2 TMD"}]}, {"molecule": "GNRASALVSGMCCVLFLLILLTGVLCGSLIN", "note": "[TLR2 transmembrane domain (ToxR chimera) A597V]", "values": [{"measurement": "response (normalized Miller units)", "setting": "[3]", "result": 1}, {"measurement": "response (normalized Miller units)", "setting": "[4]", "result": 0.82}, {"measurement": "response (normalized Miller units)", "setting": "[5]", "result": 1}, {"measurement": "response (normalized Miller units)", "setting": "[6]", "result": 1.1}, {"measurement": "response (normalized Miller units)", "setting": "[7]", "result": 1.2}, {"measurement": "response (normalized Miller units)", "setting": "[8]", "result": 0.8}, {"measurement": "response (normalized Miller units)", "setting": "[9]", "result": 1}]}, {"molecule": "B1", "values": [{"measurement": "reduction in signal from the homotypic interaction", "setting": "[10]", "result": "> 60", "unit": "%"}, {"measurement": "reduction in signal from the homotypic interaction", "setting": "[11]", "result": "> 60", "unit": "%"}]}, {"molecule": "GNRASALVSVMCCALFLLILLTGVLCGSLIN", "note": "[TLR2 transmembrane domain (ToxR chimera) G593V]", "values": [{"measurement": "response (normalized Miller units)", "setting": "[4]", "result": 0.54}, {"measurement": "response (normalized Miller units)", "setting": "[5]", "result": 0.48}, {"measurement": "response (normalized Miller units)", "setting": "[6]", "result": 0.95}, {"measurement": "response (normalized Miller units)", "setting": "[7]", "result": 0.5}, {"measurement": "response (normalized Miller units)", "setting": "[8]", "result": 0.44}, {"measurement": "response (normalized Miller units)", "setting": "[9]", "result": 0.58}]}, {"molecule": "GNRASALLIVTIVVIMLVLGLAVAFCCLGSLIN (domain or fragment, human, flank encoded by the reading frame of the plasmid construct; Toll-like receptor 10 transmembrane domain, human, as identified by hydrophobic analysis; One molecule for the ToxR and the ToxR* form of this TMD; also called TLR10 TMD; source: E. coli FHK12, transformed with pTox7 or pTox6 plasmid, in the cells' membrane)", "note": "[TLR10 transmembrane domain (ToxR chimera)]", "values": [{"measurement": "reduction in signal from the homotypic interaction", "setting": "[10]", "result": "> 60", "unit": "%"}, {"measurement": "reduction in signal from the homotypic interaction", "setting": "[11]", "result": "> 60", "unit": "%"}, {"measurement": "reduction in signal from the homotypic interaction", "setting": "[12]", "result": "> 60", "unit": "%"}]}, {"molecule": "B2", "values": [{"measurement": "reduction in signal from the homotypic interaction", "setting": "[11]", "result": "> 60", "unit": "%"}, {"measurement": "reduction in signal from the homotypic interaction", "setting": "[12]", "result": "> 60", "unit": "%"}]}, {"molecule": "B3", "values": [{"measurement": "reduction in signal from the homotypic interaction", "setting": "[10]", "result": "> 60", "unit": "%"}, {"measurement": "reduction in signal from the homotypic interaction", "setting": "[12]", "result": "> 60", "unit": "%"}]}]}
